Results: US20180094059A1 (UNIVERSITAT STUTTGART, published 2018)
Substitutions are numbered along the chain they refer to. Where two headings read alike, the source gives them in different places.

Columns and labels:
Experiment in all cases: cell-based or functional assay
[1] = molecular target: fibroblast activation protein (FAP) on transfected HT1080 cells (UniProt Q12884 1-760, limits assumed)
[2] = molecular target: T1, EGFR on EGFR-positive tumor cell lines (UniProt P00533 25-1210, limits assumed)
[3] = molecular target: T1, EGFR on EGFR-positive tumor cell lines; remark: listed apart in the source

B1: Db anti-FAP-Glyco-scTRAIL3-FAVSGAA (other)
chain: LEASDYKDDDDKGTGQVQLVQSGAEVKKPGASVKVSCKASGYTFTENIIHWVRQAPGQGLEWMGWFHPGSGSIKYNEKFKDRVTMTADTSTSTVYMELSSLRSEDTAVYYCARHGGTGRGAMDYWGQGTLVTVSSGGGGSDIQMTQSPSSLSASVGDRVTITCRASKSVSTSAYSYMHWYQQKPGKAPKLLIYLASNLESGVPSRFSGSGSGTDFTLTISSLQPEDFATYYCQHSRELPYTFGQGTKLEIKRAAAGNGTSNGTSEFGGAAAHITGTRGRSNTLSSPNSKNEKALGRKINSWESSRSGHSFLSNLHLRNGELVIHEKGFYYIYSQTYFRFQEEIKENTKNDKQMVQYIYKYTSYPDPILLMKSARNSCWSKDAEYGLYSIYQGGIFELKENDRIFVSVTNEHLIDMDHEASFFGAFAVSGAAAHITGTRGRSNTLSSPNSKNEKALGRKINSWESSRSGHSFLSNLHLRNGELVIHEKGFYYIYSQTYFRFQEEIKENTKNDKQMVQYIYKYTSYPDPILLMKSARNSCWSKDAEYGLYSIYQGGIFELKENDRIFVSVTNEHLIDMDHEASFFGAFAVSGAAAHITGTRGRSNTLSSPNSKNEKALGRKINSWESSRSGHSFLSNLHLRNGELVIHEKGFYYIYSQTYFRFQEEIKENTKNDKQMVQYIYKYTSYPDPILLMKSARNSCWSKDAEYGLYSIYQGGIFELKENDRIFVSVTNEHLIDMDHEASFFGAFAVS
modifications: 16 aa peptide linker with two N-glycosylation sites
In the case of B1, the “EC50 of cytotoxicity on HT1080 FAP+ cells, competing with excess anti-FAP IgG” value [1] is reported as 0.04 nM, the “EC50 of cytotoxicity on HT1080 FAP+ cells, with bortezomib, competing conditions” value [1] is reported as 0.0041 nM and the “EC50 of cytotoxicity on HT1080 FAP+ cells, with bortezomib, non-competing conditions” value [1] is reported as 0.002 nM. The “EC50 of cytotoxicity on HT1080 FAP+ cells, without αFAP IgG” value [1] was 0.029 nM.

B2: Db-Glyco-scTRAIL3-FAVSGAA (other)
chain: LEASDYKDDDDKGAEVQLVESGGGLVQPGGSLRLSCAASGFSLTNYGVHWVRQAPGKGLEWLGVIWSGGNTDYNTPFTSRFTISRDNSKNTLYLQMNSLRAEDTAVYYCARALTYYDYEFAYWGQGTTVTVSSGGGGSDIQLTQSPSFLSASVGDRVTITCRASQSIGTNIHWYQQKPGKAPKLLIKYASESISGVPSRFSGSGSGTEFTLTISSLQPEDFATYYCQQNNNWPTTFGAGTKLEIKRAAAGNGTSNGTSEFGGAAAHITGTRGRSNTLSSPNSKNEKALGRKINSWESSRSGHSFLSNLHLRNGELVIHEKGFYYIYSQTYFRFQEEIKENTKNDKQMVQYIYKYTSYPDPILLMKSARNSCWSKDAEYGLYSIYQGGIFELKENDRIFVSVTNEHLIDMDHEASFFGAFAVSGAAAHITGTRGRSNTLSSPNSKNEKALGRKINSWESSRSGHSFLSNLHLRNGELVIHEKGFYYIYSQTYFRFQEEIKENTKNDKQMVQYIYKYTSYPDPILLMKSARNSCWSKDAEYGLYSIYQGGIFELKENDRIFVSVTNEHLIDMDHEASFFGAFAVSGAAAHITGTRGRSNTLSSPNSKNEKALGRKINSWESSRSGHSFLSNLHLRNGELVIHEKGFYYIYSQTYFRFQEEIKENTKNDKQMVQYIYKYTSYPDPILLMKSARNSCWSKDAEYGLYSIYQGGIFELKENDRIFVSVTNEHLIDMDHEASFFGAFAVS
modifications: two N-glycosylation sites in the peptide AAAGNGTSNGTSEFGG, shown to be glycosylated
B2 was tested, and the “EC50 of cell death induction, Colo205, with Bortezomib” value [2] was 0.033 nM, the “EC50 of cell death induction, Colo205, with Bortezomib + Cetuximab” value (shortened to “EC50 … Colo205, with Bortezomib + Cetuximab”) [2] was 0.074 nM and the “EC50 of cell death induction, HCT116, with Bortezomib” value [2] was 0.066 nM. For the same binder, the “EC50 of cell death induction, HCT116, with Bortezomib + Cetuximab” value (shortened to “EC50 … HCT116, with Bortezomib + Cetuximab”) [2] was 0.45 nM, the “EC50 of cell death induction, HT1080, with Bortezomib” value [2] was 0.001 nM and the “EC50 of cell death induction, HT1080, with Bortezomib + Cetuximab” value (from here on “EC50 … HT1080, with Bortezomib + Cetuximab”) [2] was 0.01 nM.

B3: Db-Glyco-scTRAIL3-FAVSGIA (other)
chain: B2 chain with A263I, A424I, A585I
modifications: glycosylated connecting peptide
For B3, the “EC50 of cell death induction, Colo205, with Bortezomib” value [2] was 0.019 nM, the “EC50 … Colo205, with Bortezomib + Cetuximab” value [2] was 0.032 nM and the “EC50 of cell death induction, HCT116, with Bortezomib” value [2] was 0.043 nM. For the same binder, the “EC50 … HCT116, with Bortezomib + Cetuximab” value [2] was 0.161 nM, the “EC50 of cell death induction, HT1080, with Bortezomib” value [2] was 0.0006 nM and the “EC50 … HT1080, with Bortezomib + Cetuximab” value [2] was 0.005 nM.

B4: Dbhu225-scTRAIL3-FLVGGGPQRVA (other, not shown: small tags and cut ends)
chain: DYKDDDDKGGGGSGTEVQLVESGGGLVQPGGSLRLSCAASGFSLTNYGVHWVRQAPGKGLEWLGVIWSGGNTDYNTPFTSRFTISRDNSKNTLYLQMNSLRAEDTAVYYCARALTYYDYEFAYWGQGTTVTVSSGGGGSDIQLTQSPSFLSASVGDRVTITCRASQSIGTNIHWYQQKPGKAPKLLIKYASESISGVPSRFSGSGSGTEFTLTISSLQPEDFATYYCQQNNNWPTTFGAGTKLEIKRAAAGGSGGGPQRVAAHITGTRGRSNTLSSPNSKNEKALGRKINSWESSRSGHSFLSNLHLRNGELVIHEKGFYYIYSQTYFRFQEEIKENTKNDKQMVQYIYKYTSYPDPILLMKSARNSCWSKDAEYGLYSIYQGGIFELKENDRIFVSVTNEHLIDMDHEASFFGAFLVGGGPQRVAAHITGTRGRSNTLSSPNSKNEKALGRKINSWESSRSGHSFLSNLHLRNGELVIHEKGFYYIYSQTYFRFQEEIKENTKNDKQMVQYIYKYTSYPDPILLMKSARNSCWSKDAEYGLYSIYQGGIFELKENDRIFVSVTNEHLIDMDHEASFFGAFLVGGGPQRVAAHITGTRGRSNTLSSPNSKNEKALGRKINSWESSRSGHSFLSNLHLRNGELVIHEKGFYYIYSQTYFRFQEEIKENTKNDKQMVQYIYKYTSYPDPILLMKSARNSCWSKDAEYGLYSIYQGGIFELKENDRIFVSVTNEHLIDMDHEASFFGAFLVG
With B4 the “EC50 of cell death induction, Colo205, with Bortezomib” value [3] was 0.0038 nM, the “EC50 of cell death induction, Colo205, without bortezomib” value (“EC50 … Colo205, without bortezomib” for short) [3] was 0.041 nM and the “EC50 of cell death induction, Colo205 in presence of Cetuximab, with bortezomib” value (“EC50 … of Cetuximab, with bortezomib” for short) [3] was 0.0138 nM. For the same binder, the “EC50 of cell death induction, Colo205 in presence of Cetuximab, without bortezomib” value (shortened to “EC50 … of Cetuximab, without bortezomib”) [3] was 0.102 nM.

B5: dsDbhu225-scTRAIL3-FLVGGGPQRVA (other, not shown: small tags and cut ends)
chain: B4 chain with G59C, A239C
With B5 the “EC50 of cell death induction, Colo205, with Bortezomib” value [3] was 0.0025 nM, the “EC50 … Colo205, without bortezomib” value [3] was 0.0212 nM and the “EC50 … of Cetuximab, with bortezomib” value [3] was 0.0072 nM. For the same binder, the “EC50 … of Cetuximab, without bortezomib” value [3] was 0.0423 nM.

B6: Db8-Glyco-scTRAIL3-FAVSGAA (other)
chain: LEASDYKDDDDKGAEVQLVESGGGLVQPGGSLRLSCAASGFSLTNYGVHWVRQAPGKGLEWLGVIWSGGNTDYNTPFTSRFTISRDNSKNTLYLQMNSLRAEDTAVYYCARALTYYDYEFAYWGQGTTVTVSSGGGGSGGGDIQLTQSPSFLSASVGDRVTITCRASQSIGTNIHWYQQKPGKAPKLLIKYASESISGVPSRFSGSGSGTEFTLTISSLQPEDFATYYCQQNNNWPTTFGAGTKLEIKRAAAGNGTSNGTSEFGGAAAHITGTRGRSNTLSSPNSKNEKALGRKINSWESSRSGHSFLSNLHLRNGELVIHEKGFYYIYSQTYFRFQEEIKENTKNDKQMVQYIYKYTSYPDPILLMKSARNSCWSKDAEYGLYSIYQGGIFELKENDRIFVSVTNEHLIDMDHEASFFGAFAVSGAAAHITGTRGRSNTLSSPNSKNEKALGRKINSWESSRSGHSFLSNLHLRNGELVIHEKGFYYIYSQTYFRFQEEIKENTKNDKQMVQYIYKYTSYPDPILLMKSARNSCWSKDAEYGLYSIYQGGIFELKENDRIFVSVTNEHLIDMDHEASFFGAFAVSGAAAHITGTRGRSNTLSSPNSKNEKALGRKINSWESSRSGHSFLSNLHLRNGELVIHEKGFYYIYSQTYFRFQEEIKENTKNDKQMVQYIYKYTSYPDPILLMKSARNSCWSKDAEYGLYSIYQGGIFELKENDRIFVSVTNEHLIDMDHEASFFGAFAVS
modifications: glycosylated connecting peptide
In the case of B6, the “EC50 of cell death induction, Colo205, with Bortezomib” value [2] is reported as 0.026 nM, the “EC50 … Colo205, with Bortezomib + Cetuximab” value [2] is reported as 0.061 nM and the “EC50 of cell death induction, HCT116, with Bortezomib” value [2] is reported as 0.051 nM. For the same binder, the “EC50 … HCT116, with Bortezomib + Cetuximab” value [2] was 0.3 nM, the “EC50 of cell death induction, HT1080, with Bortezomib” value [2] was 0.0009 nM and the “EC50 … HT1080, with Bortezomib + Cetuximab” value [2] was 0.007 nM.

B7: scFvhu225-EHD2-scTRAIL3-FLVGGGPQRVA (other)
chain: DYKDDDDKGGGGSGTEVQLVESGGGLVQPGGSLRLSCAASGFSLTNYGVHWVRQAPGKGLEWLGVIWSGGNTDYNTPFTSRFTISRDNSKNTLYLQMNSLRAEDTAVYYCARALTYYDYEFAYWGQGTTVTVSSGGGGSGGGGSGGGGSDIQLTQSPSFLSASVGDRVTITCRASQSIGTNIHWYQQKPGKAPKLLIKYASESISGVPSRFSGSGSGTEFTLTISSLQPEDFATYYCQQNNNWPTTFGAGTKLEIKRAAAGGSGGDFTPPTVKILQSSCDGGGHFPPTIQLLCLVSGYTPGTINITWLEDGQVMDVDLSTASTTQEGELASTQSELTLSQKHWLSDRTYTCQVTYQGHTFEDSTKKCADSNGGSGGASSGGGPQRVAAHITGTRGRSNTLSSPNSKNEKALGRKINSWESSRSGHSFLSNLHLRNGELVIHEKGFYYIYSQTYFRFQEEIKENTKNDKQMVQYIYKYTSYPDPILLMKSARNSCWSKDAEYGLYSIYQGGIFELKENDRIFVSVTNEHLIDMDHEASFFGAFLVGGGPQRVAAHITGTRGRSNTLSSPNSKNEKALGRKINSWESSRSGHSFLSNLHLRNGELVIHEKGFYYIYSQTYFRFQEEIKENTKNDKQMVQYIYKYTSYPDPILLMKSARNSCWSKDAEYGLYSIYQGGIFELKENDRIFVSVTNEHLIDMDHEASFFGAFLVGGGPQRVAAHITGTRGRSNTLSSPNSKNEKALGRKINSWESSRSGHSFLSNLHLRNGELVIHEKGFYYIYSQTYFRFQEEIKENTKNDKQMVQYIYKYTSYPDPILLMKSARNSCWSKDAEYGLYSIYQGGIFELKENDRIFVSVTNEHLIDMDHEASFFGAFLVG
With B7 the “EC50 of cell death induction, Colo205, with Bortezomib” value [3] was 0.0018 nM, the “EC50 … Colo205, without bortezomib” value [3] was 0.0119 nM and the “EC50 … of Cetuximab, with bortezomib” value [3] was 0.0067 nM. For the same binder, the “EC50 … of Cetuximab, without bortezomib” value [3] was 0.0693 nM.
